The results in this text go back to patent US20250042996A1 (ALLAKOS, published 2025).

Like-named read-outs stand apart in the source and are kept apart here.

Test [1] concerns the target human SIGLEC-9-ECD-Fc recombinant fusion protein (human) (UniProt Q9Y336). The test is described as follows: column 'Blocking EC50 (nM)': ligand blocking assay, antibody pre-mixed with Siglec-9-ECD-Fc, blocked binding to Siglec-9 ligands on T47D cells, flow cytometry.
Test [2] has the same target. The test can be described thus: Siglec-9/Ligand Blocking Assay: antibody titrated against Siglec-9-ECD-Fc, blocked binding to ligands on T47D cells, median MFI by flow cytometry; unit inferred, x axis 'Ab (nM)'. A general note: In flow cytometry, cells or beads pass a laser one at a time.
The target is the same in test [3]. The test is described as follows: Ligand Displacement Assay: Siglec-9-ECD-Fc pre-bound to ligands on T47D cells, antibody titrated, remaining Siglec-9-ECD-Fc as median MFI by flow cytometry; unit inferred, x axis 'Ab (nM)'.
Test [4] shares this target. The test can be described thus: column 'Displacement EC50 (nM)': ligand displacement assay, Siglec-9-ECD-Fc pre-bound to ligands on T47D cells, antibody titrated, remaining Siglec-9-ECD-Fc by flow cytometry.
Test [5] deals with human Siglec-9 (expressed on transfected Expi293 cells; also on primary human monocytes) (human) (UniProt Q9Y336).
For test [6], the target named is human SIGLEC-9-ECD-Fc recombinant fusion protein (human) (UniProt Q9Y336). The test is described as follows: Siglec-9/Ligand Blocking Assay, negative control: fitted value printed for an almost flat curve; unit inferred, x axis 'Ab (nM)'.
Test [7] shares this target. The test can be described thus: Ligand Displacement Assay, negative control: fitted value printed for a curve that only dips at the last points; unit inferred, x axis 'Ab (nM)'.
Test [8] deals with human Siglec-9 (expressed on transfected Expi293 cells; also on primary human monocytes) (human, UniProt Q9Y336 18-463). The test can be described thus: cell-based or functional assay.
For test [9], the target named is T1, human SIGLEC-9-ECD-Fc recombinant fusion protein (human, UniProt Q9Y336 18-343).
T1 construct: The range starts at residue 1, so it includes the signal peptide; No cleavage site is stated; Secreted from CHOK1SV cells and purified on Protein A; also called Siglec-9-ECD-huFc; S9-ECD-Fc
The test is described as follows: Siglec-9/Ligand Blocking Assay: antibody titrated against Siglec-9-ECD-Fc, blocked binding to ligands on T47D cells, median MFI by flow cytometry; unit inferred, x axis 'Ab (nM)'. The procedure:
(§1) Recombinant Siglec-9-Fc was added to T47D cells in the presence of anti-Siglec-9 antibodies at increasing concentrations and binding of the complex was detected on the cell surface. […] The ability of an antibody to displace ligand binding was also determined (FIGS. 3 and 5).
(§2) Human breast cancer cell line T47D, which expresses high level of ligands for Siglec-9, was used to determine the blocking activity of anti-Siglec-9 antibodies in a cell-based assay. Two-fold serial dilutions of anti-Siglec-9 antibodies (40 nM to 40 pM) were combined with 10 nM Siglec-9-ECD-Fc in FACS buffer (PBS/2% BSA) and incubated on ice for 30 minutes. 2.5×10e4 T47D cells per well were added to round bottom 96-well tissue culture plates in FACS buffer, plates were centrifuged at 400g for 2 min, supernatant was removed and cells were re-suspended in 100 ul of the antibody-Siglec-9 complexes. After a 1 hour incubation on ice, cells were washed twice and incubated for 30 minutes with goat anti-human F(ab′)₂ fragment conjugated to AF647 (Jackson IR labs) at lug/ml in FACS buffer. After two more washes, cells were fixed in PBS/2% PFA and acquired on a Novocyte flow cytometer (ACEA biosciences). IC₅₀ values for blocking were determined based on plotting mean fluorescence in the APC channel and analysis using Prism Graphpad software.

The target in test [10] is T1, human SIGLEC-9-ECD-Fc recombinant …. The test can be described thus: column 'Blocking EC50 (nM)': ligand blocking assay, antibody pre-mixed with Siglec-9-ECD-Fc, blocked binding to Siglec-9 ligands on T47D cells, flow cytometry. As to the method: as §1, §2
For test [11] the target is unchanged. The test is described as follows: column 'Displacement EC50 (nM)': ligand displacement assay, Siglec-9-ECD-Fc pre-bound to ligands on T47D cells, antibody titrated, remaining Siglec-9-ECD-Fc by flow cytometry. The procedure: as §1
(§3) T47D cells were treated with 2ug/mL S9-ECD-Fc for 1 hour on ice. After the 1 hr preincubation of S9, a titration curve of anti Siglec-9 msIgG1s were added for 1 hr incubation at +37° C. Cells were then washed to remove unbound S9. Bound S9 were detected through the human Fc using Alexa488 conjugated secondary. Levels of remaining S9 were assessed by flow cytometry”

Test [12] shares this target. The test is described as follows: bio-layer interferometry (ForteBio), antibody captured on anti-mouse sensors, Siglec-9-ECD as analyte, 25 C, 1:1 global fit. The procedure:
Antibody binding analysis was carried out by bio-layer interferometry (ForteBio). […] Antibodies were captured on anti-mouse kinetic sensors at 0.5 ug/mL; Siglec-9-ECD was used as analyte and diluted in assay buffer from 50 nM to 1.56 nM with 2x dilutions. Two-minute associations were conducted, followed by 10-minute dissociations. Results were determined relative to a control empty reference AHC sensor, and analyzed using ForteBio analysis software with 1:1 global fit parameters.

The target is the same in test [13]. The test is described as follows: Ligand Displacement Assay: Siglec-9-ECD-Fc pre-bound to ligands on T47D cells, antibody titrated, remaining Siglec-9-ECD-Fc as median MFI by flow cytometry; unit inferred, x axis 'Ab (nM)'. As to the method:
as §1, §3

The target is the same in test [14]. The test can be described thus: BLI (ForteBio Octet Red), SIGLEC-9-ECD-Fc on anti-human Fc sensors, Fab in solution, monovalent. As to the method: (§4) Anti-human Fc sensors were coated with SIGLEC-9-ECD-Fc at a concentration of 20 μg/ml in 1XHBS+1% BSA buffer (GE Lifesciences). After a brief wash with 1XHBS+1% BSA buffer, m9A12, ch9A12 or the humanized Fabs were applied to the antigen-coated sensors. The monovalent binding association and dissociation rates were calculated by the ForteBio Octet Red analysis software.
In general terms: BLI is a label-free optical method that tracks binding on a fibre tip over time.

Test [15] has the same target. Described as above. The procedure:
The V-regions from the humanized Fab were re-formatted for expression as a human IgG4.
as §4
This is another data set of the same source.

T1 sequence (Q9Y336 18-343): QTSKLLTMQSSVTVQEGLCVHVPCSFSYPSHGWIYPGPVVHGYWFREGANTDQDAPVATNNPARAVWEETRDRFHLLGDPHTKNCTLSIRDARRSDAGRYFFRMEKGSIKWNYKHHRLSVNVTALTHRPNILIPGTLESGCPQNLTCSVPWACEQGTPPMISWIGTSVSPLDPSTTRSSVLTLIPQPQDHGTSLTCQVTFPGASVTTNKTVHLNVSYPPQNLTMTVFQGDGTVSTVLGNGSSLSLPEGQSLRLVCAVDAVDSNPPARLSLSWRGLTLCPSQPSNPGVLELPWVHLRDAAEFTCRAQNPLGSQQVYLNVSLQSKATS
Sequence of human SIGLEC-9-ECD-Fc recombinant fusion protein (human) (Q9Y336 18-343): as above
Sequence of human Siglec-9 (expressed on transfected Expi293 cells; also on primary human monocytes) (human) (Q9Y336 18-463 limits assumed): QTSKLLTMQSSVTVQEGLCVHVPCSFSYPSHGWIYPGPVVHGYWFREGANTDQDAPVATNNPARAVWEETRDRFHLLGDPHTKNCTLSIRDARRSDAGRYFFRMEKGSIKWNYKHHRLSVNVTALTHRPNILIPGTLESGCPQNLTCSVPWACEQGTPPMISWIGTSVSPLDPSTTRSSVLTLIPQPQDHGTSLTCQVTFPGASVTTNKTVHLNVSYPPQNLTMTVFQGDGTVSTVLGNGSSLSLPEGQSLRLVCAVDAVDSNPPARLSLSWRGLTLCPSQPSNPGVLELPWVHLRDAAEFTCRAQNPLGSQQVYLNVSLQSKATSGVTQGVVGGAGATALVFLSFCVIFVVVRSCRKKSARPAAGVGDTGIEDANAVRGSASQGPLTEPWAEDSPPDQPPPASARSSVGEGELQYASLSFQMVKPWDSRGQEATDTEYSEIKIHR
Sequence of human Siglec-9 (expressed on transfected Expi293 cells; also on primary human monocytes) (Q9Y336 18-463 limits assumed): as above

As for “anti-Siglec-9 monoclonal antibody MAB1139 (R&D Systems)”, the EC50 (in general, the midpoint of the concentration-response curve) in [1] is 4.4 nM; in test [4], 2 nM. In addition, the 50% inhibitory concentration (IC50) (as a rule, the concentration at which inhibition is half-maximal) was 4.39 nM in test [2] and 2 nM in [3]. The Internalization EC50: loss of surface Siglec-9 on CD14+ monocytes in PBMC after 24 h in test [5] was 0.165 nM.

Isotype (p3) (antibody): the 50% inhibitory concentration (IC50) in test [6] was found to be 71.3 nM.

On to msIgG1 (p1) (antibody), for which the concentration for half-maximal inhibition (IC50) in [7] is 140 nM.

B1: mouse anti-Siglec-9 monoclonal antibody 9A12 (antibody, V domains shown)
VH: QVQLQQSGAELVRPGASVTLSCKASDYTFTDYEMHWVKQTPVHGLEWIGAIDPEAGGTDYNQKFKGKAILTADKSSSTAYMELRSLTSEDSAVYYCTRVWLHWGQGTTLTVSS
VL: NIVMTQSPSSLAVSAGEKVTMNCKSSQSVLYSSNQKNYLAWYQQKPGQSPKMLIYWASTRESGVPDRFTGSGSGTDFTLTISSVQSEDLAVYYCHQYLSSNTFGGGTKLEIK
notes: Mouse monoclonal antibody; also called m9A12
For B1, the “Internalization EC50: loss of surface Siglec-9 on CD14+ monocytes in PBMC after 24 h” value in test [8] stood at 0.125 nM. Besides, the values for the IC50 in [9] and in [13] were 2.62 nM and 1.52 nM, respectively. Besides, the results for the EC50 in test [10] and in [11] were 2.62 nM and 1.52 nM, respectively. In test [12], the Kd – broadly, the concentration at which binding is half-saturated – was below 0.001 nM.

B2: Tf71 Fab (Fab)
chain 1: QVQLVQSGAEVKKPGASVKVSCKASGYTFTDYEMHWVRQAPGQGLEWMGAIDPEAGGTDYAQKFQGRVTMTADTSISTAYMELSRLRSDDTAVYYCTRVWLHWGQGTLVTVSS
chain 2: DIVMTQSPDSLAVSLGERVTMNCKSSQSVLYSSNQKNYLAWYQQKPGQPPKMLIYWASTRESGVPDRFSGSGSGTDFTLTISSLQAEDVAVYYCHQYLSSNTFGQGTKLEIK
Regarding B2, in [14], the Kd turned out to be 0.533 nM, the off-rate (koff) (commonly the first-order rate constant of dissociation) came to 0.000232 s⁻¹ and the on-rate constant (kon) (usually the rate constant with which the complex forms) is 435000 M⁻¹ s⁻¹.

B3: Tf84 Fab (Fab)
chain 1: QVQLVQSGAEVKKPGASVKVSCKASDYTFTDYEMHWVRQAPGQGLEWMGAINPESGGTDYAQKFQGRVTMTADTSISTAYMELSRLRSDDTAVYYCTRVWLHWGQGTLVTVSS
chain 2: DIVMTQSPDSLAVSLGERVTMNCKSSQSVLYSSNQKNYLAWYQQKPGQPPKMLIYWASTRESGVPDRFSGSGSGTDFTLTISSLQAEDVAVYYCHQYLSSNTFGQGTKLEIK
For B3, in test [14], the Kd was determined as 2.24 nM, the koff was found to be 0.00295 s⁻¹ and the on-rate (kon) turned out to be 1.32e+06 M⁻¹ s⁻¹.

B4: Tf73 Fab (Fab, V domains shown)
VH: QVQLVQSGAEVKKPGASVKVSCKASDYTFTGYEMHWVRQAPGQGLEWMGAIDPEAGGTDYAQKFQGRVTMTADTSISTAYMELSRLRSDDTAVYYCTRVWLHWGQGTLVTVSS
VL: DIVMTQSPDSLAVSLGERVTMNCKSSQSVLYSSNQKNYLAWYQQKPGQPPKMLIYWASTRESGVPDRFSGSGSGTDFTLTISSLQAEDVAVYYCHQYLSSNTFGQGTKLEIK
notes: also called AK643-3 / AK628-1
Regarding B4, in test [14], the dissociation constant Kd was 0.575 nM, the dissociation rate constant (koff) worked out at 0.000184 s⁻¹ and the on-rate (kon) came out at 319000 M⁻¹ s⁻¹. Besides, in test [15], the equilibrium dissociation constant (Kd) is 0.575 nM, the off-rate (koff) was found to be 0.000184 s⁻¹ and the kon was found to be 319000 M⁻¹ s⁻¹.

B5: Tf83 Fab (Fab)
chain 1: QVQLVQSGAEVKKPGASVKVSCKASDYTFTDYEMHWVRQAPGQGLEWMGAINPEAGGTDYAQKFQGRVTMTADTSISTAYMELSRLRSDDTAVYYCTRVWLHWGQGTLVTVSS
chain 2: DIVMTQSPDSLAVSLGERVTMNCKSSQSVLYSSNQKNYLAWYQQKPGQPPKMLIYWASTRESGVPDRFSGSGSGTDFTLTISSLQAEDVAVYYCHQYLSSNTFGQGTKLEIK
Take B5: in test [14], the Kd amounted to 9.99 nM, the koff worked out at 0.00297 s⁻¹ and the on-rate (kon) was determined as 298000 M⁻¹ s⁻¹.

B6: Tf63 Fab (Fab, V domains shown)
VH: QVQLVQSGAEVKKPGASVKVSCKASDYTFTDYEMHWVRQAPGQGLEWMGAIDPEAGGTDYAQKFQGRVTMTADTSISTAYMELSRLRSDDTAVYYCTRVWLHWGQGTLVTVSS
VL: DIVMTQSPDSLAVSLGERVTMNCKSSQSVLYSSNQKNYLAWYQQKPGQPPKMLIYWASTRESGVPDRFSGSGSGTDFTLTISSLQAEDVAVYYCHQYLSSNTFGQGTKLEIK
notes: Humanized 9A12 Fab; also called AK639-12 / AK628-1
Consider B6, for which, in [15], the equilibrium dissociation constant (Kd) is 0.66 nM, the koff is 0.00016 s⁻¹ and the kon was found to be 242000 M⁻¹ s⁻¹.
